# Assay results: article PMC8254751 (Molecular cancer research : MCR, 2021)
# “And” between values parts separate entries of the source, which are not always exact repeats. Identical values can stand only once.
# T1: GST-BAP1-ULD (human, UniProt Q92560 601-729)
# T1 sequence (looked up): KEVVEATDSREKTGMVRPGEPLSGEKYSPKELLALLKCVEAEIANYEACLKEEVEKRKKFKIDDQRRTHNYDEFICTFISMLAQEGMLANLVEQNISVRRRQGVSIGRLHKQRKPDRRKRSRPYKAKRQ
# T2: Full-length His-BAP1 (Bv-His-BAP1-FL-WT) (human, UniProt Q92560 1-729)
# T2 sequence (looked up): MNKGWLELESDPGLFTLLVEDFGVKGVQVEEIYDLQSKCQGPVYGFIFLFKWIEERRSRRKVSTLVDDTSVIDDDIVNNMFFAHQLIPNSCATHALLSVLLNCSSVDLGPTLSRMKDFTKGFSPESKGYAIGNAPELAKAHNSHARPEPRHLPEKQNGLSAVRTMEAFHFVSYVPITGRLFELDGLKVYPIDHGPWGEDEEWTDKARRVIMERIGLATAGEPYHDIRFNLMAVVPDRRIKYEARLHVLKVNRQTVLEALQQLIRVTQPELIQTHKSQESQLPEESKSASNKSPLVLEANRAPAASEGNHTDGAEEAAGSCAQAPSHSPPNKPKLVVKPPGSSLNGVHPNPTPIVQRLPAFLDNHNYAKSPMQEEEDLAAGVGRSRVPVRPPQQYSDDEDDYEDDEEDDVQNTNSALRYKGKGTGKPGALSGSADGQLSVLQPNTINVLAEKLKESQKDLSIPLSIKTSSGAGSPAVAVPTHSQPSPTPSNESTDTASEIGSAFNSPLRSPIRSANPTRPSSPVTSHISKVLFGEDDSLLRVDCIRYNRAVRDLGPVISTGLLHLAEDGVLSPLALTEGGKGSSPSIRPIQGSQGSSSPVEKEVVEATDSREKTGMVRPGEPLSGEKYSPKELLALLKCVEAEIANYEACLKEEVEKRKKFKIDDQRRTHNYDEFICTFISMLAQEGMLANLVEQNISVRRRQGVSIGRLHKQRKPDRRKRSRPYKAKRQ
# B1: His-BAP1-ULD (601–729aa) (domain or fragment, human, UniProt Q92560 601-729, looked up)
# chain: T1 sequence (looked up)
# B2: His-ASXL2-AB (261–381aa) (domain or fragment, human, UniProt Q76L83 261-381, looked up)
# chain: MKRTKCADIDVETPDSILVNTNLRALINKHTFSVLPGDCQQRLLLLLPEVDRQVGPDGLMKLNGSALNNEFFTSAAQGWKERLSEGEFTPEMQVRIRQEIEKEKKVEPWKEQFFESYYGQS
# B3: His-ULD/AB protein complex (pETDuet-1-His-BAP1-ULD+ASXL2-AB) (complex, human)
# chain 1: T1 sequence (looked up)
# chain 2: B2 chain
# B4: GST-BAP1-UCH-WT (1–250 aa) (domain or fragment, human, UniProt Q92560 1-250, looked up)
# chain: MNKGWLELESDPGLFTLLVEDFGVKGVQVEEIYDLQSKCQGPVYGFIFLFKWIEERRSRRKVSTLVDDTSVIDDDIVNNMFFAHQLIPNSCATHALLSVLLNCSSVDLGPTLSRMKDFTKGFSPESKGYAIGNAPELAKAHNSHARPEPRHLPEKQNGLSAVRTMEAFHFVSYVPITGRLFELDGLKVYPIDHGPWGEDEEWTDKARRVIMERIGLATAGEPYHDIRFNLMAVVPDRRIKYEARLHVLKV
# Assays:
# [1] = target: B2; assay: ITC
# [2] = target: B1; assay: ITC
# [3] = target: T1, GST-BAP1-ULD; assay: SPR
# [4] = target: T2, Full-length His-BAP1 (Bv-His-BAP1-FL-WT); assay: SPR
# [5] = target: B3; assay: SPR
binder,measurement,setting,value
B1,dH,[1],-9.87 kcal/mol
B2,Kd,[2],~4260 nM
same,Kd,[3],134 nM and 67 nM
B3,Kd,[4],850 nM and 1910 nM
same,koff,[4],0.033 s⁻¹
B4,koff,[5],0.044 s⁻¹
